Experiments:
[1] = molecular target: Vibrio cholerae chromosome 2 ParA2 (Vibrio cholerae); experiment: SEC-MALS
ParA2 (Vibrio cholerae) = experiment: EMSA

| Substance | stoichiometry N [1] | Kd (ParA2 (Vibrio cholerae)) [µM] |
| --- | --- | --- |
| Vibrio cholerae chromosome 2 ParA2 (enzyme) | 2 | – |
| Cy3-62-bp DNA | – | 1 |

From publication doi:10.1101/2021.02.27.433207
